This note sets out measurements from paper PMC9324987, “Comparative Analysis of Catabolic and Anabolic Dehydroshikimate Dehydratases for 3,4-DHBA Production in Escherichia coli” (Microorganisms, 2022).

One data set concerns the target T1, AsbF (Bacillus thuringiensis, UniProt A0A1B1L4G3).
T1 construct: gene CAB88_09740
Nature of the data set: […],4-DHBA formation at […] nm, product inhibition. The data set is classed as biochemical. Particulars: 1 mM DHS, 10 mM Mg2+, 0.1 M Tris/HCl pH 7.5, 20 °C, 150 nM enzyme.

For a further data set, the target named is T2, QsuB (Corynebacterium glutamicum, UniProt Q8NT86).
T2 construct: gene Cgl0422
T2 sequence (Q8NT86 1-618): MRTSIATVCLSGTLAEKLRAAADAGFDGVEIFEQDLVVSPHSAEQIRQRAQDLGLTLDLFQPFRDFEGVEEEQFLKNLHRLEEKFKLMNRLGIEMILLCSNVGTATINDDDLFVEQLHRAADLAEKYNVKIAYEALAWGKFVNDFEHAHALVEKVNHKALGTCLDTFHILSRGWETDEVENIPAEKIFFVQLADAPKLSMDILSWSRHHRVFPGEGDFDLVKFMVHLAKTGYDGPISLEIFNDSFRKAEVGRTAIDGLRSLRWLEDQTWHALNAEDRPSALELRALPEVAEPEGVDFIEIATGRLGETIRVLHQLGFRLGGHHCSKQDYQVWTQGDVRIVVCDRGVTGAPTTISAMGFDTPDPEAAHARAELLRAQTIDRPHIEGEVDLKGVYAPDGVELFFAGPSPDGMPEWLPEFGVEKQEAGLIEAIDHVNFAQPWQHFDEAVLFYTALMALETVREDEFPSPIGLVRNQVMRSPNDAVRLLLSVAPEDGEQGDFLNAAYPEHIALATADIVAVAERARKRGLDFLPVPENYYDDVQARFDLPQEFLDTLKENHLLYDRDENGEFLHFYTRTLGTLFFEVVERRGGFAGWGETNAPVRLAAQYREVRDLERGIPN
Nature of the data set: […],4-DHBA formation at […] nm, product inhibition. The data set is classed as biochemical.

The target of a further data set is T3, Qa-4 (Neurospora crassa, UniProt P07046).
T3 construct: full length, C-terminal His6 (pET22b), codon-optimised synthetic gene, made in E. coli BL21(DE3); primer-encoded N-terminus MPSKLAISS
T3 sequence (P07046 1-359): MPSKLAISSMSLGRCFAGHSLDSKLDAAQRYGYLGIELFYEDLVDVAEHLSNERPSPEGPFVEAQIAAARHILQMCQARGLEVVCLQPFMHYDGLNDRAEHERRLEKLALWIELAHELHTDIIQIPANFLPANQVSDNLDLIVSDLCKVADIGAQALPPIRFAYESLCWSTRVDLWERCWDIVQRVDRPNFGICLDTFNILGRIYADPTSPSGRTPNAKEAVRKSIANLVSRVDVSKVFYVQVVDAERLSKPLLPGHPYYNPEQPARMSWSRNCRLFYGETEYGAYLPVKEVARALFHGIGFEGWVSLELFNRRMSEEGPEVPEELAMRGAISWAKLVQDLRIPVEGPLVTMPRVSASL
Description: […],4-DHBA formation at […] nm, product inhibition. The data set is classed as biochemical.

Substrate in data set [1]: O=C(O)C1=CC(=O)[C@@H](O)[C@H](O)C1
Nature of the data set: purified protein. It is filed as biochemical, Neurospora crassa. The conditions noted are these: 10 mM Mg2+, 0.1 M Tris/HCl pH 7.5, 20 °C, 0.1-5 mM DHS.

Substrate in data set [2]: O=C(O)C1=CC(=O)[C@@H](O)[C@H](O)C1
Description: purified protein. The data set is classed as biochemical, Corynebacterium glutamicum. The conditions noted are these: 10 mM metal salt (preferred metal, Co2+), 0.1 M Tris/HCl pH 7.5, 20 °C, 0.1-5 mM DHS.

T1 sequence (A0A1B1L4G3 1-280): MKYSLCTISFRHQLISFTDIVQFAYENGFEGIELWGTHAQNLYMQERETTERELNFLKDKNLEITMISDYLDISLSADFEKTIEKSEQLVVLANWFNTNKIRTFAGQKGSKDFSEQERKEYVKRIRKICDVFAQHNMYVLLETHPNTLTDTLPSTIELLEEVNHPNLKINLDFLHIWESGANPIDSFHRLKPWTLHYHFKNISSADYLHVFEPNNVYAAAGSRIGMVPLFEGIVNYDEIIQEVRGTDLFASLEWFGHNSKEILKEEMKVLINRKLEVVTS

One may read the IC50 as the concentration at which inhibition is half-maximal. A low value points to greater potency. `O=C(O)c1ccc(O)c(O)c1` [3,4-DHBA]: the IC50 is roughly 80 µM on AsbF, roughly 350 µM at QsuB and roughly 640 µM on Qa-4.

B1: Qa-4 (Neurospora crassa OR74A) (protein)
chain: MPSKLAISSMSLGRCFAGHSLDSKLDAAQRYGYLGIELFYEDLVDVAEHLSNERPSPEGPFVEAQIAAARHILQMCQARGLEVVCLQPFMHYDGLNDRAEHERRLEKLALWIELAHELHTDIIQIPANFLPANQVSDNLDLIVSDLCKVADIGAQALPPIRFAYESLCWSTRVDLWERCWDIVQRVDRPNFGICLDTFNILGRIYADPTSPSGRTPNAKEAVRKSIANLVSRVDVSKVFYVQVVDAERLSKPLLPGHPYYNPEQPARMSWSRNCRLFYGETEYGAYLPVKEVARALFHGIGFEGWVSLELFNRRMSEEGPEVPEELAMRGAISWAKLVQDLRIPVEGPLVTMPRVSASL
notes: full length, C-terminal His6 (pET22b), codon-optimised synthetic gene, made in E. coli BL21(DE3); primer-encoded N-terminus MPSKLAISS
The Km is the concentration of substrate that gives half-maximal velocity. For orientation: kcat means the number of substrate molecules converted per active site and unit of time at saturation. One may read the kcat/Km as the second-order rate constant that governs catalysis at low substrate concentration. As to B1, in “purified protein [1]”, the Km is recorded as 598 ± 16 µM, the kcat was 218.6 ± 1.1 s⁻¹ and the kcat/Km amounted to 366000 ± 68800 M⁻¹ s⁻¹.

B2: QsuB (Corynebacterium glutamicum ATCC 13032) (protein)
chain: MRTSIATVCLSGTLAEKLRAAADAGFDGVEIFEQDLVVSPHSAEQIRQRAQDLGLTLDLFQPFRDFEGVEEEQFLKNLHRLEEKFKLMNRLGIEMILLCSNVGTATINDDDLFVEQLHRAADLAEKYNVKIAYEALAWGKFVNDFEHAHALVEKVNHKALGTCLDTFHILSRGWETDEVENIPAEKIFFVQLADAPKLSMDILSWSRHHRVFPGEGDFDLVKFMVHLAKTGYDGPISLEIFNDSFRKAEVGRTAIDGLRSLRWLEDQTWHALNAEDRPSALELRALPEVAEPEGVDFIEIATGRLGETIRVLHQLGFRLGGHHCSKQDYQVWTQGDVRIVVCDRGVTGAPTTISAMGFDTPDPEAAHARAELLRAQTIDRPHIEGEVDLKGVYAPDGVELFFAGPSPDGMPEWLPEFGVEKQEAGLIEAIDHVNFAQPWQHFDEAVLFYTALMALETVREDEFPSPIGLVRNQVMRSPNDAVRLLLSVAPEDGEQGDFLNAAYPEHIALATADIVAVAERARKRGLDFLPVPENYYDDVQARFDLPQEFLDTLKENHLLYDRDENGEFLHFYTRTLGTLFFEVVERRGGFAGWGETNAPVRLAAQYREVRDLERGIPN
For the molecule B2, in “purified protein [2]”, the Km was determined as 961 ± 77 µM, the kcat turned out to be 60.8 ± 0.9 s⁻¹ and the kcat/Km amounted to 63300 ± 11700 M⁻¹ s⁻¹.
